Patent US20240083953A1 (University of Washington, published 2024)
Positions count from the first letter of the chain named. Names and notes keep the numbering of the source. Where two headings read alike, the source gives them in different places.

What was measured:
[1] = biological target: DSG2 on human cells (HeLa, T84) (human) (UniProt Q14126); experiment: competition with 3H-labelled Ad3 virus for attachment to HeLa cells
[2] = biological target: DSG2 on human cells (HeLa, T84) (human) (UniProt Q14126); experiment: cell-based or functional assay
[3] = biological target: T1, Soluble CD46 (UniProt P15529 35-343); experiment: Western blot, soluble CD46 as probe, anti-CD46 mAb
T1 construct: also called sCD46
T1 sequence: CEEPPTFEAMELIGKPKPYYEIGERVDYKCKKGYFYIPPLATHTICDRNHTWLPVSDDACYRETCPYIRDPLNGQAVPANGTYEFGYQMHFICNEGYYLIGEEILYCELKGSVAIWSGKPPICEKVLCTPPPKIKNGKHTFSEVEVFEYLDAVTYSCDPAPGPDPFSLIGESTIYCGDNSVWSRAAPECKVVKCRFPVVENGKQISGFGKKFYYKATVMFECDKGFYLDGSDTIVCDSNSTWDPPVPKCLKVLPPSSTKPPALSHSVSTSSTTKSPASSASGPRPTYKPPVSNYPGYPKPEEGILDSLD

[4] = biological target: T2, DSG2 on human cells (HeLa, T84) (human, UniProt Q14126 50-1118); experiment: cell-based or functional assay
T2 sequence: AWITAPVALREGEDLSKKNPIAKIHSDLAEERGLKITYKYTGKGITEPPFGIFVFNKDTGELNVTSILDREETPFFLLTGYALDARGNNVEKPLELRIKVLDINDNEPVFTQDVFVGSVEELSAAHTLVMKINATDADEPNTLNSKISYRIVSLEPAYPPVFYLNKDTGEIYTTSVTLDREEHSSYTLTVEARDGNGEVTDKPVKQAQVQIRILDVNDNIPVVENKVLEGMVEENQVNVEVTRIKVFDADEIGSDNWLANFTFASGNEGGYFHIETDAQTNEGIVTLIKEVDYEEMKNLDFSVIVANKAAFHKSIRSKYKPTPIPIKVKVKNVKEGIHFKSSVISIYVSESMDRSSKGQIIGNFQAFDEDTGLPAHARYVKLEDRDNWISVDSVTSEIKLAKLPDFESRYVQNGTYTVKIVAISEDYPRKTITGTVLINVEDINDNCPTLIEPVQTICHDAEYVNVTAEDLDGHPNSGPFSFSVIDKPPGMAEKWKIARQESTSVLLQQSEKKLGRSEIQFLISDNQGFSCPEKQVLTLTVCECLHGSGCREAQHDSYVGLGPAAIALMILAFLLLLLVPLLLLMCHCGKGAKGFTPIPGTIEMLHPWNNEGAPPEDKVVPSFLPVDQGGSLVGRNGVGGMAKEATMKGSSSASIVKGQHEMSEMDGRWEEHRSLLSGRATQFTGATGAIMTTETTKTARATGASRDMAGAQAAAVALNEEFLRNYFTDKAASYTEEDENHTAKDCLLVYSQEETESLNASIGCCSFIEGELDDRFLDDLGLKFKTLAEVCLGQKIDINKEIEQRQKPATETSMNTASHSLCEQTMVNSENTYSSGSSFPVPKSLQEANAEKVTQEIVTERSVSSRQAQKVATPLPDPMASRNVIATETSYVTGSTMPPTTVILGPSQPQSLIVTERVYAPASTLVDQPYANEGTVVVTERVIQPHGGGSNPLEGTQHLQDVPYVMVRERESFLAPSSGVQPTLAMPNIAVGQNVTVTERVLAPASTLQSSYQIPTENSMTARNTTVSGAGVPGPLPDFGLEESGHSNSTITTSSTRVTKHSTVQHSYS

[5] = biological target: T2, DSG2 on human cells (HeLa, T84); experiment: cell-based or functional assay; remark: listed apart in the source
[6] = biological target: T3, Recombinant human DSG2 protein (desmoglein 2), soluble (human, UniProt Q14126 50-609); experiment: Western blot of dimeric knob, soluble DSG2 as probe
T3 construct: also called soluble DSG2; soluble recombinant DSG2
T3 sequence: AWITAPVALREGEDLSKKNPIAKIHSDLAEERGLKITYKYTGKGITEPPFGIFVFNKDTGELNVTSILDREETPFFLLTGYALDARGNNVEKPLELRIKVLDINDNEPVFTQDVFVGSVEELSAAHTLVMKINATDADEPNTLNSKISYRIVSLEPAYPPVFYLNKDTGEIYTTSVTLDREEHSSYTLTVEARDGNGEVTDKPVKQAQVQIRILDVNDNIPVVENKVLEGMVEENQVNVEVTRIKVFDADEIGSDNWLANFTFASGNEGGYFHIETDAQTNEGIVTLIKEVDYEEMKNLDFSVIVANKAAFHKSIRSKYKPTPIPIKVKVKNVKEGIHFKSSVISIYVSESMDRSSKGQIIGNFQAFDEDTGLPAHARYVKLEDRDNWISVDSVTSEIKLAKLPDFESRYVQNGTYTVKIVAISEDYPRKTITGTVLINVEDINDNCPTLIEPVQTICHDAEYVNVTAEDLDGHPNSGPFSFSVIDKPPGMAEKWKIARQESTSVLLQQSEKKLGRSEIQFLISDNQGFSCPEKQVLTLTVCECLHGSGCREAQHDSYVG

[7] = biological target: T3, Recombinant human DSG2 protein …; experiment: SPR, DSG2 immobilised; the filing's constants were got with the knobs without dimerization domain, so the value is set on V239D/noDD
[8] = biological target: T2, DSG2 on human cells (HeLa, T84); experiment: cell-based or functional assay; remark: listed apart in the source
[9] = biological target: T3, Recombinant human DSG2 protein …; experiment: SPR, DSG2 immobilised; the filing's constants were got with the knobs without dimerization domain, so the value is set on Y250F/noDD
[10] = biological target: T3, Recombinant human DSG2 protein …; experiment: Western blot of the blotted knob protein probed with soluble human DSG2, anti-DSG2 mAb 6D8 and HRP-anti-mouse IgG

Molecule “Dimeric Ad3 fiber knob mutant N186D, D261N, L296R (ligand)” has an Inhibition of attachment in the presence of dimeric knob (JO-1 = 100%) [1] of 18.5% and an Inhibition of infection in the presence of dimeric knob (JO-1 = 100%) [2] of 0%.

“Dimeric Ad3 fiber knob mutant D261N, L296R (ligand)” showed an Inhibition of attachment in the presence of dimeric knob (JO-1 = 100%) [1] of 20.1% and an Inhibition of infection in the presence of dimeric knob (JO-1 = 100%) [2] of 1.5%.

B1: JO-1 (dimeric wild-type Ad3 fiber knob) (ligand)
chain: MKVSALKEKVSALKEKVSALKEKVSALKEKVSALKEGSGGGSGGGSGGGSNSIALKNNTLWTGPKPEANCIIEYGKQNPDSKLTLILVKNGGIVNGYVTLMGASDYVNTLFKNKNVSINVELYFDATGHILPDSSSLKTDLELKYKQTADFSARGFMPSTTAYPFVLPNAGTHNENYIFGQCYYKASDGALFPLEVTVMLNKRLPDSRTSYVMTFLWSLNAGLAPETTQATLITSPFTFSYIREDD
notes: also called dimeric wt Ad3 fiber knob; dimeric wtAd3 knob
With B1 the binding result [3] was “no binding”, the “IC50 (read off the curve): inhibition of Ad3-GFP infection of HeLa cells, % GFP-positive cells” value [4] was roughly 5 µg/mL and the “IC50 (read off the curve): inhibition of Ad3-GFP infection of HeLa cells, MFI of GFP” value [5] was roughly 0.6 µg/mL.

B2: Dimeric Ad3 fiber knob mutant N186D, D261N, L296R (ligand)
chain: B1 chain with N113D, D188N, L223R
notes: also called mutant with mutations in all three areas (N185, D261, L296)
B2: no binding [6].

B3: Ad3 fiber knob mutant V239D without dimerization domain (ligand)
chain: NKLCSKLGNGLTFDSSNSIALKNNTLWTGPKPEANCIIEYGKQNPDSKLTLILVKNGGIVNGYVTLMGASDYVNTLFKNKNVSINVELYFDATGHILPDSSSLKTDLELKYKQTADFSARGFMPSTTAYPFDLPNAGTHNENYIFGQCYYKASDGALFPLEVTVMLNKRLPDSRTSYVMTFLWSLNAGLAPETTQATLITSPFTFSYIREDD
notes: range 108-319; also called V239D/noDD; not shown: N-terminal 6-His tag of pQE30 and a Gly/Ser linker coded by primer P1
B3 was tested, and the Kd [7] was 24.9 nM and the “IC50 (read off the curve): inhibition of Ad3-GFP infection of HeLa cells, MFI of GFP” value [8] was roughly 4 µg/mL.

B4: Ad3 fiber knob mutant Y250F without dimerization domain (ligand)
chain: B3 chain with D132V, Y143F
notes: range 108-319; also called Y250F/noDD; not shown: N-terminal 6-His tag of pQE30 and a Gly/Ser linker coded by primer P1
B4 gave a Kd [9] of 11.4 nM.

B5: Ad3-S/Kn (ligand)
chain: SIALKNNTLWTGPKPEANCIIEYGKQNPDSKLTLILVKNGGIVNGYVTLMGASDYVNTLFKNKNVSINVELYFDATGHILPDSSSLKTDLELKYKQTADFSARGFMPSTTAYPFVLPNAGTHNENYIFGQCYYKASDGALFPLEVTVMLNKRLPDSRTSYVMTFLWSLNAGLAPETTQATLITSPFTFSYIREDD
B5: no binding [3]; no binding [10].

B6: Ad3-S6/Kn (ligand)
chain: NGVLSLKCVNPLTTASGSLQLKVGSGLTVDTTDGSLEENIKVNTPLTKSNHSINLPIGNGLQIEQNKLCSKLGNGLTFDSSNSIALKNNTLWTGPKPEANCIIEYGKQNPDSKLTLILVKNGGIVNGYVTLMGASDYVNTLFKNKNVSINVELYFDATGHILPDSSSLKTDLELKYKQTADFSARGFMPSTTAYPFVLPNAGTHNENYIFGQCYYKASDGALFPLEVTVMLNKRLPDSRTSYVMTFLWSLNAGLAPETTQATLITSPFTFSYIREDD
notes: also called Ad3 fiber knob with six shaft motifs
B6: no binding [3].
